# Starred links: 1 amine or outer side, 2 acyl side, 3 side chain; linkers in the order of their positions; H or OH if unused. Non-standard residues stand in square brackets, D forms with d. Groups on a side chain read outwards from the residue. No end group written: not given here. *: point of attachment. C20 diacid = O=C(O)CCCCCCCCCCCCCCCCCCC(=O)*; C18 diacid = O=C(O)CCCCCCCCCCCCCCCCC(=O)*; γGlu = O=C(O)[C@H](CCC(=O)[*:2])N[*:1]; αMeF = C[C@](N)(Cc1ccccc1)C(=O)O; AEEA = NCCOCCOCC(=O)O; Aib = CC(C)(N)C(=O)O
# B1: Peptide 439 (peptide)
# peptide: H[Aib]QGTFTSDVSK[αMeF]LDRK([AEEA-AEEA-γGlu-C18 diacid])RAQDFVRWLL[Aib]E-NH2
# modifications: N-terminus assumed
# SMILES: CC(C)C[C@H](NC(=O)[C@H](Cc1c[nH]c2ccccc12)NC(=O)[C@H](CCCNC(=N)N)NC(=O)[C@@H](NC(=O)[C@H](Cc1ccccc1)NC(=O)[C@H](CC(=O)O)NC(=O)[C@H](CCC(N)=O)NC(=O)[C@H](C)NC(=O)[C@H](CCCNC(=N)N)NC(=O)[C@H](CCCCNC(=O)COCCOCCNC(=O)COCCOCCNC(=O)CC[C@H](NC(=O)CCCCCCCCCCCCCCCCC(=O)O)C(=O)O)NC(=O)[C@H](CCCNC(=N)N)NC(=O)[C@H](CC(=O)O)NC(=O)[C@H](CC(C)C)NC(=O)[C@](C)(Cc1ccccc1)NC(=O)[C@H](CCCCN)NC(=O)[C@H](CO)NC(=O)[C@@H](NC(=O)[C@H](CC(=O)O)NC(=O)[C@H](CO)NC(=O)[C@@H](NC(=O)[C@H](Cc1ccccc1)NC(=O)[C@@H](NC(=O)CNC(=O)[C@H](CCC(N)=O)NC(=O)C(C)(C)NC(=O)[C@@H](N)Cc1c[nH]cn1)[C@@H](C)O)[C@@H](C)O)C(C)C)C(C)C)C(=O)N[C@@H](CC(C)C)C(=O)NC(C)(C)C(=O)N[C@@H](CCC(=O)O)C(N)=O
# B2: Peptide 437 (peptide)
# peptide: H[Aib]QGTFTSDVSK[αMeF]LDRK([AEEA-AEEA-γGlu-C20 diacid])RAQDFVRWLV[Aib]E-NH2
# modifications: N-terminus assumed
# SMILES: CC(C)C[C@H](NC(=O)[C@H](Cc1c[nH]c2ccccc12)NC(=O)[C@H](CCCNC(=N)N)NC(=O)[C@@H](NC(=O)[C@H](Cc1ccccc1)NC(=O)[C@H](CC(=O)O)NC(=O)[C@H](CCC(N)=O)NC(=O)[C@H](C)NC(=O)[C@H](CCCNC(=N)N)NC(=O)[C@H](CCCCNC(=O)COCCOCCNC(=O)COCCOCCNC(=O)CC[C@H](NC(=O)CCCCCCCCCCCCCCCCCCC(=O)O)C(=O)O)NC(=O)[C@H](CCCNC(=N)N)NC(=O)[C@H](CC(=O)O)NC(=O)[C@H](CC(C)C)NC(=O)[C@](C)(Cc1ccccc1)NC(=O)[C@H](CCCCN)NC(=O)[C@H](CO)NC(=O)[C@@H](NC(=O)[C@H](CC(=O)O)NC(=O)[C@H](CO)NC(=O)[C@@H](NC(=O)[C@H](Cc1ccccc1)NC(=O)[C@@H](NC(=O)CNC(=O)[C@H](CCC(N)=O)NC(=O)C(C)(C)NC(=O)[C@@H](N)Cc1c[nH]cn1)[C@@H](C)O)[C@@H](C)O)C(C)C)C(C)C)C(=O)N[C@H](C(=O)NC(C)(C)C(=O)N[C@@H](CCC(=O)O)C(N)=O)C(C)C
# B3: Peptide 435 (peptide)
# peptide: H[Aib]QGTFTSDVSK[αMeF]LDTK([AEEA-AEEA-γGlu-C18 diacid])RARDFVQ[Aib]LLE[Aib]G-OH
# modifications: N-terminus assumed
# SMILES: CC(C)C[C@H](NC(=O)[C@H](CC(C)C)NC(=O)C(C)(C)NC(=O)[C@H](CCC(N)=O)NC(=O)[C@@H](NC(=O)[C@H](Cc1ccccc1)NC(=O)[C@H](CC(=O)O)NC(=O)[C@H](CCCNC(=N)N)NC(=O)[C@H](C)NC(=O)[C@H](CCCNC(=N)N)NC(=O)[C@H](CCCCNC(=O)COCCOCCNC(=O)COCCOCCNC(=O)CC[C@H](NC(=O)CCCCCCCCCCCCCCCCC(=O)O)C(=O)O)NC(=O)[C@@H](NC(=O)[C@H](CC(=O)O)NC(=O)[C@H](CC(C)C)NC(=O)[C@](C)(Cc1ccccc1)NC(=O)[C@H](CCCCN)NC(=O)[C@H](CO)NC(=O)[C@@H](NC(=O)[C@H](CC(=O)O)NC(=O)[C@H](CO)NC(=O)[C@@H](NC(=O)[C@H](Cc1ccccc1)NC(=O)[C@@H](NC(=O)CNC(=O)[C@H](CCC(N)=O)NC(=O)C(C)(C)NC(=O)[C@@H](N)Cc1c[nH]cn1)[C@@H](C)O)[C@@H](C)O)C(C)C)[C@@H](C)O)C(C)C)C(=O)N[C@@H](CCC(=O)O)C(=O)NC(C)(C)C(=O)NCC(=O)O
# B4: Peptide 441 (peptide)
# peptide: H[Aib]QGTFTSDVSK[αMeF]LDKK([AEEA-AEEA-γGlu-C20 diacid])RAQDFVRWLL[Aib]E-NH2
# modifications: N-terminus assumed
# SMILES: CC(C)C[C@H](NC(=O)[C@H](Cc1c[nH]c2ccccc12)NC(=O)[C@H](CCCNC(=N)N)NC(=O)[C@@H](NC(=O)[C@H](Cc1ccccc1)NC(=O)[C@H](CC(=O)O)NC(=O)[C@H](CCC(N)=O)NC(=O)[C@H](C)NC(=O)[C@H](CCCNC(=N)N)NC(=O)[C@H](CCCCNC(=O)COCCOCCNC(=O)COCCOCCNC(=O)CC[C@H](NC(=O)CCCCCCCCCCCCCCCCCCC(=O)O)C(=O)O)NC(=O)[C@H](CCCCN)NC(=O)[C@H](CC(=O)O)NC(=O)[C@H](CC(C)C)NC(=O)[C@](C)(Cc1ccccc1)NC(=O)[C@H](CCCCN)NC(=O)[C@H](CO)NC(=O)[C@@H](NC(=O)[C@H](CC(=O)O)NC(=O)[C@H](CO)NC(=O)[C@@H](NC(=O)[C@H](Cc1ccccc1)NC(=O)[C@@H](NC(=O)CNC(=O)[C@H](CCC(N)=O)NC(=O)C(C)(C)NC(=O)[C@@H](N)Cc1c[nH]cn1)[C@@H](C)O)[C@@H](C)O)C(C)C)C(C)C)C(=O)N[C@@H](CC(C)C)C(=O)NC(C)(C)C(=O)N[C@@H](CCC(=O)O)C(N)=O
# B5: Peptide 438 (peptide)
# peptide: H[Aib]QGTFTSDVSK[αMeF]LDKK([AEEA-AEEA-γGlu-C18 diacid])RAQDFVRWLEA[Aib]G-NH2
# modifications: N-terminus assumed
# SMILES: CC(C)C[C@H](NC(=O)[C@H](Cc1c[nH]c2ccccc12)NC(=O)[C@H](CCCNC(=N)N)NC(=O)[C@@H](NC(=O)[C@H](Cc1ccccc1)NC(=O)[C@H](CC(=O)O)NC(=O)[C@H](CCC(N)=O)NC(=O)[C@H](C)NC(=O)[C@H](CCCNC(=N)N)NC(=O)[C@H](CCCCNC(=O)COCCOCCNC(=O)COCCOCCNC(=O)CC[C@H](NC(=O)CCCCCCCCCCCCCCCCC(=O)O)C(=O)O)NC(=O)[C@H](CCCCN)NC(=O)[C@H](CC(=O)O)NC(=O)[C@H](CC(C)C)NC(=O)[C@](C)(Cc1ccccc1)NC(=O)[C@H](CCCCN)NC(=O)[C@H](CO)NC(=O)[C@@H](NC(=O)[C@H](CC(=O)O)NC(=O)[C@H](CO)NC(=O)[C@@H](NC(=O)[C@H](Cc1ccccc1)NC(=O)[C@@H](NC(=O)CNC(=O)[C@H](CCC(N)=O)NC(=O)C(C)(C)NC(=O)[C@@H](N)Cc1c[nH]cn1)[C@@H](C)O)[C@@H](C)O)C(C)C)C(C)C)C(=O)N[C@@H](CCC(=O)O)C(=O)N[C@@H](C)C(=O)NC(C)(C)C(=O)NCC(N)=O
# B6: Peptide 440 (peptide)
# peptide: H[Aib]QGTFTSDVSK[αMeF]LDKK([AEEA-AEEA-γGlu-C20 diacid])RARDFVRWLL[Aib]E-OH
# modifications: N-terminus assumed
# SMILES: CC(C)C[C@H](NC(=O)[C@H](Cc1c[nH]c2ccccc12)NC(=O)[C@H](CCCNC(=N)N)NC(=O)[C@@H](NC(=O)[C@H](Cc1ccccc1)NC(=O)[C@H](CC(=O)O)NC(=O)[C@H](CCCNC(=N)N)NC(=O)[C@H](C)NC(=O)[C@H](CCCNC(=N)N)NC(=O)[C@H](CCCCNC(=O)COCCOCCNC(=O)COCCOCCNC(=O)CC[C@H](NC(=O)CCCCCCCCCCCCCCCCCCC(=O)O)C(=O)O)NC(=O)[C@H](CCCCN)NC(=O)[C@H](CC(=O)O)NC(=O)[C@H](CC(C)C)NC(=O)[C@](C)(Cc1ccccc1)NC(=O)[C@H](CCCCN)NC(=O)[C@H](CO)NC(=O)[C@@H](NC(=O)[C@H](CC(=O)O)NC(=O)[C@H](CO)NC(=O)[C@@H](NC(=O)[C@H](Cc1ccccc1)NC(=O)[C@@H](NC(=O)CNC(=O)[C@H](CCC(N)=O)NC(=O)C(C)(C)NC(=O)[C@@H](N)Cc1c[nH]cn1)[C@@H](C)O)[C@@H](C)O)C(C)C)C(C)C)C(=O)N[C@@H](CC(C)C)C(=O)NC(C)(C)C(=O)N[C@@H](CCC(=O)O)C(=O)O
# B7: Peptide 436 (peptide)
# peptide: H[Aib]QGTFTSDVSK[αMeF]LDRK([AEEA-AEEA-γGlu-C18 diacid])RAQDFVRWLV[Aib]E-NH2
# modifications: N-terminus assumed
# SMILES: CC(C)C[C@H](NC(=O)[C@H](Cc1c[nH]c2ccccc12)NC(=O)[C@H](CCCNC(=N)N)NC(=O)[C@@H](NC(=O)[C@H](Cc1ccccc1)NC(=O)[C@H](CC(=O)O)NC(=O)[C@H](CCC(N)=O)NC(=O)[C@H](C)NC(=O)[C@H](CCCNC(=N)N)NC(=O)[C@H](CCCCNC(=O)COCCOCCNC(=O)COCCOCCNC(=O)CC[C@H](NC(=O)CCCCCCCCCCCCCCCCC(=O)O)C(=O)O)NC(=O)[C@H](CCCNC(=N)N)NC(=O)[C@H](CC(=O)O)NC(=O)[C@H](CC(C)C)NC(=O)[C@](C)(Cc1ccccc1)NC(=O)[C@H](CCCCN)NC(=O)[C@H](CO)NC(=O)[C@@H](NC(=O)[C@H](CC(=O)O)NC(=O)[C@H](CO)NC(=O)[C@@H](NC(=O)[C@H](Cc1ccccc1)NC(=O)[C@@H](NC(=O)CNC(=O)[C@H](CCC(N)=O)NC(=O)C(C)(C)NC(=O)[C@@H](N)Cc1c[nH]cn1)[C@@H](C)O)[C@@H](C)O)C(C)C)C(C)C)C(=O)N[C@H](C(=O)NC(C)(C)C(=O)N[C@@H](CCC(=O)O)C(N)=O)C(C)C
# Tests used:
# [1] = target: human GLP-1 receptor (human, UniProt P43220); assay: cell-based or functional assay
# [2] = target: human glucagon receptor (human, UniProt P47871); assay: cell-based or functional assay
Binder,cAMP production EC50 [1] [nM],cAMP production EC50 [2] [nM]
B1,0.0307,0.0577
B2,0.0269,0.0969
B3,0.0227,0.24
B4,0.0627,0.0728
B5,0.0179,0.0689
B6,0.154,0.081
B7,0.00743,0.0688

# Source: US12630600B2 (MEDIMMUNE LIMITED, priority 2022, dated 2026)
